Assay results as given in PMC6411776 (2019).
Where “and” joins values, the source holds several entries; their conditions need not be identical. Equal entries are not always repeated. One block for each molecule: values may come before it.

How the values were obtained:
[1] = target: Cep152 M4d(1205–1295), from E. coli (human); test: AUC; sedimentation velocity, complex at 10 μM; 4 °C; 20 mM Tris (pH 7.5), 500 mM NaCl, 10 mM 2-mercaptoethanol, 0.5 mM TCEP, 5% glycerol
[2] = target: Cep152 full-length FL(1–1654) (human); test: co-IP; IP from a mixture of lysates from HEK293 cells transfected separately with each construct; with or without provision of HA-Cep63
[3] = target: Cep152 M4e(1205–1272) (human); test: co-IP; transfected HEK293 cells lysed in TBSN buffer [20 mM Tris-HCl (pH 8.0), 150 mM NaCl, 0.5% Nonidet P-40, 5 mM EGTA, 1.5 mM EDTA]; IP with anti-FLAG or anti-GFP antibody and protein A/G-agarose; immunoblotting
[4] = target: Cep63 P1b(490–541) (human); test: as above
[5] = target: Cep63 P1(424–541), expressed in HEK293 cells; test: co-immunoprecipitation (IP: FLAG) and immunoblotting; details: transfected HEK293 cells; FLAG-Cep152 M4e co-expressed with GFP-Cep63 P1 and GFP-Cep152 M4e; blot α-GFP, P1 band; parent: 1.0
Cep152 M4e(1205–1272) = test: as above; details: transfected HEK293 cells; FLAG-Cep152 M4e co-expressed with GFP-Cep63 P1 and GFP-Cep152 M4e; blot α-GFP, M4e band; parent: 1.0
Cep63 full-length (FL) = test: as above; details: transfected HEK293 cells; FLAG-Cep152 WT or 6A co-expressed with HA-Cep63; blot α-HA, long exposure; parent: 1.0
[6] = target: Cep152(1140–1295), from E. coli (human); test: SEC-MALS; Cep63(220–541)•Cep152(1140–1295) complex; Superdex 200 Increase 10/300 GL, 4 °C, 20 mM Tris-HCl (pH 8.0), 150 mM NaCl, 0.5 mM TCEP (the methods name the P1•M4d complex)
[7] = target: Cep152 M4e15(1205–1257), from E. coli (human); test: AUC; sedimentation velocity of the P1b5•M4e15 complex, 95 to 530 μM; 20 °C; 20 mM Tris (pH 7.5), 100 mM NaCl, 0.5 mM TCEP
[8] = target: Cep152 M4e15(1205–1257), from E. coli (human); test: SEC-MALS; decreasing concentrations of the P1b5•M4e15 complex; biphasic change of MW, estimated Kd values of two steps of dissociation of the heterotetramer
[9] = target: Cep63 full-length (FL) (human); test: co-IP; transfected HEK293 cells lysed in TBSN buffer [20 mM Tris-HCl (pH 8.0), 150 mM NaCl, 0.5% Nonidet P-40, 5 mM EGTA, 1.5 mM EDTA]; IP with anti-FLAG or anti-GFP antibody and protein A/G-agarose; immunoblotting
Cep152 = target: T1, Cep152 (Homo sapiens, UniProt O94986); test: SEC-MALS
T1 chain: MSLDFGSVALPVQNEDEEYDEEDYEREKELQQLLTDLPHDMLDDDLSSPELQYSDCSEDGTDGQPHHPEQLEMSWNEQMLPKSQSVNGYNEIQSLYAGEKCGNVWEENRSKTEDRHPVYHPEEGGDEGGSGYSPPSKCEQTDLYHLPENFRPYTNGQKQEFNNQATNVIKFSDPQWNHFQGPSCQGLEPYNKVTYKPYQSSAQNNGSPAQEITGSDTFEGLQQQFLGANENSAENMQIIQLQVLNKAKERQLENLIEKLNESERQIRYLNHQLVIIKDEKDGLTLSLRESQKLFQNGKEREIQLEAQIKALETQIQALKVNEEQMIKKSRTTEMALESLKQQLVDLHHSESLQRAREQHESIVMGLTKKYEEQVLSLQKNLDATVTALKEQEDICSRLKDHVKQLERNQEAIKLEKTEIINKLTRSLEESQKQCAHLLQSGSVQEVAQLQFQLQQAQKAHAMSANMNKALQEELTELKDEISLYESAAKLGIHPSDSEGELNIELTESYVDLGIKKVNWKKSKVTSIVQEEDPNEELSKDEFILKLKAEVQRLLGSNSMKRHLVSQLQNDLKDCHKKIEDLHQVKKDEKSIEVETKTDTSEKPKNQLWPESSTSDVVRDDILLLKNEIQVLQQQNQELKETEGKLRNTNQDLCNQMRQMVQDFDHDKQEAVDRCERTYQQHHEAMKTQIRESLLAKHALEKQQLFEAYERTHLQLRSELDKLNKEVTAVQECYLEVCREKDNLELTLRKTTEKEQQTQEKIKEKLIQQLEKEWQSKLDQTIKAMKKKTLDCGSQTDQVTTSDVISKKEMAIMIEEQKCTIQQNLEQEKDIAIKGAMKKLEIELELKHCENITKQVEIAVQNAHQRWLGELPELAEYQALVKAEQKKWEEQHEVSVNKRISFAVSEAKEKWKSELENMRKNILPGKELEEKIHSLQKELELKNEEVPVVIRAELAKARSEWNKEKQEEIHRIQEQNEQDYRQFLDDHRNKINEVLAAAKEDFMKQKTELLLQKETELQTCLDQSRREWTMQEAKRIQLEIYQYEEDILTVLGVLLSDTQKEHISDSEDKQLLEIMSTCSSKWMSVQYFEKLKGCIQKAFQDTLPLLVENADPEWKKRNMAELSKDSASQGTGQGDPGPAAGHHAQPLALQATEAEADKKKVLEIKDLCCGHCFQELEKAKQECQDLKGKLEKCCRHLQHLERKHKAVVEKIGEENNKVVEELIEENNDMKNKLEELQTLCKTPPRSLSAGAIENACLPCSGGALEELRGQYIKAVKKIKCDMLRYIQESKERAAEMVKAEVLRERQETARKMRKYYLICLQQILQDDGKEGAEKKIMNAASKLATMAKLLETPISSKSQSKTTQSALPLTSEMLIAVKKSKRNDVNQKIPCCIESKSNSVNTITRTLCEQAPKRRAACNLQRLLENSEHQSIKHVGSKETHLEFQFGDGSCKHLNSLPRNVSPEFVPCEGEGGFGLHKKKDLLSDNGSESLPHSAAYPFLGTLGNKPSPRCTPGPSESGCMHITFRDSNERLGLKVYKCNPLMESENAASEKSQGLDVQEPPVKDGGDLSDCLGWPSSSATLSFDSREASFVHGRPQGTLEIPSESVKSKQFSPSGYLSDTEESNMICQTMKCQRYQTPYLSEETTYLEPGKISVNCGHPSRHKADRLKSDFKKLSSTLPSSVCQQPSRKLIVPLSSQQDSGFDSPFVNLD

ratio to parent [5]: 0
ratio to parent (Cep152 M4e(1205–1272)): 0.1
Molecule: Cep152 M4e(1205–1272) L1207A; L1210A; Y1214A; I1221A; M1225A; Y1228A

ratio to parent (Cep63 full-length (FL)): 0.1
Molecule: Cep152 full-length FL(1–1654) L1207A; L1210A; Y1214A; I1221A; M1225A; Y1228A

fold increase of the co-precipitate on provision of Cep152 [9]: 8 fold
Molecule: Cep63 full-length (FL) (natural protein)

Kd (Cep152): ~60 µM and ~117 µM
B1: Cep63 (protein)
chain: MEALLEGIQNRGHGGGFLTSCEAELQELMKQIDIMVAHKKSEWEGRTHALETCLKIREQELKSLRSQLDVTHKEVGMLHQQVEEHEKIKQEMTMEYKQELKKLHEELCILKRSYEKLQKKQMREFRGNTKNHREDRSEIERLTAKIEEFRQKSLDWEKQRLIYQQQVSSLEAQRKALAEQSEIIQAQLVNRKQKLESVELSSQSEIQHLSSKLERANDTICANELEIERLTMRVNDLVGTSMTVLQEQQQKEEKLRESEKLLEALQEEKRELKAALQSQENLIHEARIQKEKLQEKVKATNTQHAVEAIRPREESLAEKKYTSQGQGDLDSVLSQLNFTHTSEDLLQAEVTCLEGSLESVSATCKQLSQELMEKYEELKRMEAHNNEYKAEIKKLKEQILQGEQSYSSALEGMKMEISHLTQELHQRDITIASTKGSSSDMEKRLRAEMQKAEDKAVEHKEILDQLESLKLENRHLSEMVMKLELGLHEAKEISLADLQENYIEALNKLVSENQQLQKDLMNTKSQLEISTQMCKKQNDRIFKPTHSRTTEFKNTEFKPTHGQHRHDGIKTEHYKTDLHSPRGQASDSINPMSRVLSPLSPQISPCSSTRSLTSYSLCKTHSLPSALDTNEANFSDTMSESMNDQEEFISSCSLPVSPLGSIATRFLEEEELRSHHILERLDAHIEELKRESEKTVRQFTALK

Further lines, the molecule ahead of its results:

Molecule: His-Cep63 P1(424–541), from E. coli (domain or fragment)
stoichiometry N (Cep63:Cep152 (printed as 2:2)) [1]: 1

Molecule: Cep152 full-length FL(1–1654) (natural protein)
fold increase of the co-precipitate on provision of Cep63 [2]: 8 fold

Molecule: GFP-Cep63 P1b5(502–541) (domain or fragment)
loss of co-precipitation against the P1b–M4e pair [3]: 40%

Molecule: GFP-Cep152 M4e13(1205–1260) (domain or fragment)
loss of co-precipitation against the P1b–M4e pair [4]: 40%

Molecule: Cep152 M4e(1205–1272) 5A
ratio to parent [5]: 0.9
ratio to parent (Cep152 M4e(1205–1272)): 0.7

Molecule: Cep152 M4e(1205–1272) 11A
ratio to parent [5]: 0
ratio to parent (Cep152 M4e(1205–1272)): 0

Molecule: His-Cep63(220–541), from E. coli (domain or fragment)
stoichiometry N (Cep63:Cep152 (printed as 2:2)) [6]: 1

Molecule: His-Cep63 P1b5(502–541), from E. coli (pKM5500) (domain or fragment)
stoichiometry N (Cep63:Cep152 (printed as 2:2)) [7]: 1
Kd of one of two steps of dissociation of the 2:2 heterotetramer (step not assigned) [8]: 60 µM
